Laboratory results as given in US6248554, “DNA sequence coding for a BMP receptor” (The Procter & Gamble Company, dated 2001).

B1: bone morphogenetic protein 4 (ligand)
chain: SPKHHSQRARKKNKNCRRHSLYVDFSDVGWNDWIVAPPGYQAFYCHGDCPFPLADHLNSTNHAIVQTLVNSVNSSIPKACCVPTELSAISMLYLDEYDKVVLKNYQEMVVEGCGCR
modifications: 125I label by the chloramine-T method where used as tracer
B2: BMP receptor kinase protein-1 (receptor)
chain: QNLDSMLHGTGMKSDLDQKKPENGVTLAPEDTLPFLKCYCSGHCPDDAINNTCITNGHCFAIIEEDDQGETTLTSGCMKYEGSDFQCKDSPKAQLRRTIECCRTNLCNQYLQPTLPPVVIGPFFDGSIRWLVVLISMAVCIVAMIIFSSCFCYKHYCKSISSRGRYNRDLEQDEAFIPVGESLKDLIDQSQSSGSGSGLPLLVQRTIAKQIQMVRQVGKGRYGEVWMGKWRGEKVAVKVFFTTEEASWFRETEIYQTVLMRHENILGFIAADIKGTGSWTQLYLITDYHENGSLYDFLKCATLDTRALLKLAYSAACGLCHLHTEIYGTQGKPAIAHRDLKSKNILIKKNGSCCIADLGLAVKFNSDTNEVDIPLNTRVGTKRYMAPEVLDESLNKNHFQPYIMADIYSFGLIIWEMARRCITGGIVEEYQLPYYNMVPSDPSYEDMREVVCVKRLRPIVSNRWNSDECLRAVLKLMSECWAHNPASRLTALRIKKTLAKMVESQDVKI

What was measured:
[1] = biological target: B2; assay: whole cell binding of [125I]-BMP-4 (100 pM), nonspecific binding with 10 nM BMP-2, COS-7 cells transfected with pJT4-J159F
Procedure: The detached cells are pelleted in a tabletop centrifuge, then resuspended in fresh media at a concentration of 6.25 ×10^6 cells/ml. The cell suspension (5 ×10^6 cells, 0.8 ml) is transferred to the cuvette from a BioRad "GENE PULSER" electroporation system (BioRad, Hercules, Calif.). The purified DNA plasmid (10 μg) is added to the cuvette, and the cells subjected to electoporation at 4.0 kV/cm, with a capacitance of 25 μFd. Cells are then plated and allowed to recover. Fresh media is supplied after 24 hr. At 48 hr, cells are ready to be tested for binding of BMP-4.
(§1) For whole cell binding experiments, COS-7 cells are transfected with pJT4-J159F as described in example 7. After electroporation, cells are seeded in 12 well plates at 670,000 cells/ell. Media is changed after 24 hr, and binding experiments are carried out at 48 hr. At that time, cells are washed once with binding buffer (50 mM Hepes buffer, pH 7.4, 128 mM NaCl, 5 mM KCl, 5 mM MgSO_4, 1.2 mM CaCl_2, 2 mg/ml BSA), then equilibrated in the same buffer at 4° C. for 30 min with gentle shaking. […] The solubilized cells are then transferred to fresh tubes and counted in a Packard Model 5005 "COBRA" Gamma Counter (Packard Instrument Co., Downers Grove, Ill.).

digit-removed BMP-2 = biological target: T1, digit-removed BMP-2 (Homo sapiens (Human), UniProt P12643, 125I label by the chloramine-T method); assay: DSS crosslinking on transfected COS-7 cells, SDS-PAGE
T1 sequence: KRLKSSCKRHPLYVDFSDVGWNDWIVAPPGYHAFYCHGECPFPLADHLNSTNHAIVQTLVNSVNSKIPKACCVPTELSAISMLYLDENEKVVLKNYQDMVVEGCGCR
Source text: (§2) In this method, the bifunctional crosslinking reagent disuccinimidyl suberate (DSS) (Pierce Chemical, Rockford, Ill.) is used to covalently crosslink bound radiolabeled ligand to its receptor by reaction with free amino groups on lysine residues in the two proteins. Following the crosslinking, cellular proteins are separated by gel electrophoresis, and radioactive bands visualized. The labeled bands represent the receptor selectively "tagged" with the radiolabeled ligand. In this procedure, cells are transfected with pJT4-J159F as described in example 7, then seeded into 12 well plates at 670,000 cells/well. Media is changed after 24 hr. At 48 hr after electroporation, the cells are washed, equilibrated, and incubated with [^125I]-BMP-4 or [^125I]-DRBMP-2 and competing unlabeled ligands as described in this example for whole cell binding studies.
(§3) After completion of the 4 hour incubation with ligand, the cells are washed three times at 4° C. with 2 ml of binding buffer having the same composition as described above, except that no BSA is added. To each well is then added 1 ml of fresh BSA-free binding buffer, followed by freshly prepared DSS to a final concentration of 135 μM. After swirling gently to mix the DSS, the plates are incubated for exactly 15 minutes at 4° C. with gentle shaking. […]

[2] = biological target: B1; assay: saturation binding of [125I]-BMP-4 (10-1000 pM) on COS-7 cells transfected with BRK-1, nonspecific binding with 10 nM unlabelled BMP-4, LIGAND software
Procedure: as §1, with “shaking. The buffer is then aspirated, and to each well is added 500 µl of binding buffer (4° C.), containing [^125I]-BMP-4 tracer (100 pM), as well as varying concentrations of unlabeled BMP-2, BMP-4, or other unlabeled ligand, depending on the assay. For determination of nonspecific binding, BMP-2 is added to the binding buffer at a final concentration of 10 nM.” for “shaking.”
In order to obtain a more quanitative characterization of binding to BRK-1, a saturation binding analysis is performed on COS-7 cells transfected with the cDNA for BRK-1, using the construct pJT4-J159F. Binding of [^125I]-BMP-4 is examined over a concentration range of 10–1000 pM, with nonspecific binding determined with 10 nM unlabeled BMP-4.

[3] = biological target: T2, bone morphogenetic protein 2 (Homo sapiens (Human), UniProt P12643); assay: competition: 10 nM unlabelled BMP-2 greatly reduces the band of [125I]-BMP-4 or [125I]-DR-BMP-2 crosslinked to BRK-1
T2 sequence: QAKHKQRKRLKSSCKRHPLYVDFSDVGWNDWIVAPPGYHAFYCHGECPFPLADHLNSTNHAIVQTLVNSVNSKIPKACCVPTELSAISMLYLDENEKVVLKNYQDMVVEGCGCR
Source text: as §2, §3

With B1 the “specific binding relative to mock-transfected COS-7 cells” value [1] was 3 times.

With B2 the binding result (digit-removed BMP-2) was “binds”, the Kd [2] was 0.5 nM and the binding result [3] was “binds”.
